Test results taken from US20230183352A1 (published 2023).
Substitutions are numbered along the chain they refer to. Read-outs that look alike come from different tables or passages of the source.

B1: QP14501448 (antibody, V domains shown)
VH: EVQLVESGGGLVQPGGSLRLSCAASGFTFSSFGMHWVRQAPGKGLEWVAYISSGSNSIYYVDTVKGRFTISRDNAKNSLYLQMNSLRDEDTAVYYCARNAYYGNSFDYWGQGTLVTVSS
VL: DIVMTQSPDSLAVSLGERATISCKSSQSLLNSGNQKNYLTWYQQKPGQPPKLLIYWASTRESGVPDRFTGSGSGTVFTLTISSLQAEDVAVYFCQNNYYYPLTFGGGTKVEIKR
B2: QP14491448 (antibody, V domains shown)
VH: B1 VH with A49S
VL: B1 VL
B3: QP14501446 (antibody, V domains shown)
VH: B1 VH
VL: B1 VL with S22N, T69S, V76D, F93Y
B4: QP207208 (antibody, V domains shown)
VH: EVQLQQSGPELVKPGASVKMSCKASGYTFTSYIMHWVKQKPGQGLEWIGYINPYNDGTKYNEKFKGKATLTSDKSSSTVYMELSSLTSEDSAVYCCARLGFTTRNAMDYWGQGTSVTVSS
VL: DIVMTQSPSSLSVSAGEKVTMNCKSSQSLLNSGNQKNYLAWYQQKPGQPPKLLIYGASTRESGVPDRFTGSGSGTDFTLTISSVQAEDLAVYYCQNDHSYPFTFGSGTKLEIK
B5: QP14381433 (antibody, V domains shown)
VH: EVQLVESGGGLVKPGGSLRLSCAASGFTFSNYAMSWVRQAPGKRLEWVASIISGGRTYYLDSEKGRFTISRDNAKNSLYLQMNSLRAEDTAVYYCTRIYYGNSFDYWGQGTLVTVSS
VL: DIVMTQSPDSLAVSLGERATINCKSSQSLLNSGNQKNYLTWYQQKPGQPPKLLIYWASTRESGVPDRFSGSGSGTDFTLTISSLQAEDVAVYYCQNDYSYPFTFGQGTKLEIK
B6: QP14431439 (antibody, V domains shown)
VH: QVQLVQSGAEVKKPGASVKVSCKASGYAFSSYWMNWVRQAPGQGLEWMGQIYPGNGDTTYNGKFKGRVTMTRDTSTSTVYMELSSLRSEDTAVYYCARFVKGNAMDYWGQGTLVTVSS
VL: B5 VL with D97A
B7: QP14491447 (antibody, V domains shown)
VH: B1 VH with A49S
VL: B5 VL with N22S, Y93F, D97N, S99Y, F102L, Q106G, L110V
B8: QP14381435 (antibody, V domains shown)
VH: B5 VH
VL: B5 VL with N22S, S69T
B9: QP14371433 (antibody, V domains shown)
VH: B5 VH with R44G
VL: B1 VL with S22N, T69S, V76D, F93Y, N97D, Y99S, L102F, G106Q, V110L
B10: QP14361434 (antibody, V domains shown)
VH: B5 VH with R44G, A49S
VL: B5 VL with N22S
B11: QP14361435 (antibody, V domains shown)
VH: B5 VH with R44G, A49S
VL: B1 VL with V76D, F93Y, N97D, Y99S, L102F, G106Q, V110L
B12: QP14381434 (antibody, V domains shown)
VH: B5 VH
VL: B5 VL with N22S
B13: QP14501447 (antibody, V domains shown)
VH: B1 VH
VL: B5 VL with N22S, Y93F, D97N, S99Y, F102L, Q106G, L110V
B14: QP14511447 (antibody, V domains shown)
VH: B1 VH with D88S
VL: B5 VL with N22S, Y93F, D97N, S99Y, F102L, Q106G, L110V
B15: QP14661460 (antibody, V domains shown)
VH: B4 VH with Q5V, P9A, L11V, V12K, M20V, K40A, S76T, T87R, S91T, S115L
VL: B5 VL with T40A, W56G, Y98H
B16: QP14511446 (antibody, V domains shown)
VH: B1 VH with D88S
VL: B5 VL with D97N, S99Y, F102L, Q106G, L110V
B17: QP14371434 (antibody, V domains shown)
VH: B5 VH with R44G
VL: B5 VL with N22S
B18: QP14651461 (antibody, V domains shown)
VH: EVQLVQSGAEVKKPGASVKVSCKASGYTFTSYIMHWVRQAPGQGLEWIGYINPYNDGTKYNEKFKGRVTLTSDKSTSTVYMELSSLRSEDTAVYYCARLGFTTRNAMDYWGQGTLVTVSS
VL: B5 VL with T40A, W56G, S69T, Y98H
B19: QP14661462 (antibody, V domains shown)
VH: B18 VH with R38K, R67K, V68A, Y95C
VL: B5 VL with T40A, W56G, S69T, L84V, Y98H
B20: QP14361433 (antibody, V domains shown)
VH: B5 VH with R44G, A49S
VL: B5 VL
B21: QP14431440 (antibody, V domains shown)
VH: B6 VH
VL: B5 VL with N22S, D97A
B22: QP14371435 (antibody, V domains shown)
VH: B5 VH with R44G
VL: B1 VL with V76D, F93Y, N97D, Y99S, L102F, G106Q, V110L
B23: QP14631460 (antibody, V domains shown)
VH: B18 VH with E1Q, I48M, L70M, S72R, K74T
VL: B5 VL with T40A, W56G, Y98H
B24: QP14631462 (antibody, V domains shown)
VH: B18 VH with E1Q, I48M, L70M, S72R, K74T
VL: B5 VL with T40A, W56G, S69T, L84V, Y98H
B25: QP192193 (antibody, V domains shown)
VH: QVQLQQSGAELVRPGSSVKISCKASGYAFSSYWMNWVKQRPGQGLEWIGQIYPGNGDTTYNGKFKGQATLTADKSSSTVYMQLSSLTSEDSAVYFCARFVKGNAMDYWGQGTSVTVSS
VL: DIVMTQSPSSLTVTAGEKVTMSCKSSQSLLNSGNQKNYLTWYQQNPGQPPKMLIYWASTRESGVPDRFTGSGSGIDFSLTISSVQAEDLALYYCQNAYSYPFTFGSGTKLEIK
B26: QP190191 (antibody, V domains shown)
VH: EVKLVESGGGLVKPGGSLKLSCAASGFTFSNYAMSWVRQTPEKRLEWVASIISGGRTYYLDSEKGRFTISRDNARNNLYLQMSSLRSEDTAMYYCTRIYYGNSFDYWGQGTTLTVSS
VL: B4 VL with L11Q, S12T, S14T, N22S, A40T, G56W, S83N, V84M, H98Y

Tests used:
Assay in all cases: cell ELISA
[1] = molecular target: T1, Claudin 18.2 (CLDN18.2), expressed on CHOS-CLDN 18.2 / HEK293-CLDN 18.2 / HCC827-CLDN 18.2 cells (human, UniProt P56856 1-261)
[2] = molecular target: T1, Claudin 18.2 (CLDN18.2), expressed on …; remark: listed apart in the source
[3] = molecular target: T1, Claudin 18.2 (CLDN18.2), expressed on …; remark: listed apart in the source

| Binder | EC50 [1] [µg/mL] | EC50 [2] [µg/mL] | EC50 [3] [µg/mL] |
| --- | --- | --- | --- |
| B1 | 0.115 |  |  |
| B2 | 0.12 |  |  |
| B3 | 0.109 |  |  |
| B4 | 0.179 | 0.119 |  |
| B5 |  | 0.125 |  |
| B6 | 0.111 |  |  |
| B7 | 0.148 |  |  |
| B8 |  | 0.196 |  |
| B9 |  | 0.108 |  |
| B10 |  | 0.17 |  |
| B11 |  | 0.109 |  |
| B12 |  | 0.145 |  |
| B13 | 0.0926 |  |  |
| B14 | 0.202 |  |  |
| B15 | 0.105 |  |  |
| B16 | 0.133 |  |  |
| B17 |  | 0.284 |  |
| B18 | 0.301 |  |  |
| B19 | 0.538 |  |  |
| B20 |  | 0.112 |  |
| B21 | 0.124 |  |  |
| B22 |  | 0.134 |  |
| B23 |  | 0.135 |  |
| B24 | 0.105 |  |  |
| B25 | 0.101 |  | 0.155 |
| B26 |  | 0.178 |  |
